T1: human CD32b expressed on cells (human, UniProt P31994 43-310)
T1 construct: also called SupT1-CD32b; CHO-CD32b
T1 sequence: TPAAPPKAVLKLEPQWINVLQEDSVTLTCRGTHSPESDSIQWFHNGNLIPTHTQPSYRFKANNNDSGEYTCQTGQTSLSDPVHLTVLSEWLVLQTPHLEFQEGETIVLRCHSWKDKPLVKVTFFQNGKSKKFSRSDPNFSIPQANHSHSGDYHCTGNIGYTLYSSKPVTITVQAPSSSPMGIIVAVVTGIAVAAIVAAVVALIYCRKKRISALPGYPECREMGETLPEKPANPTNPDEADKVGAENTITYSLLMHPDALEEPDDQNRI

T2: recombinant human CD32b protein, biotinylated (human, UniProt P31994 43-217)
T2 construct: also called CD32b-His; recombinant CD32b protein
T2 sequence: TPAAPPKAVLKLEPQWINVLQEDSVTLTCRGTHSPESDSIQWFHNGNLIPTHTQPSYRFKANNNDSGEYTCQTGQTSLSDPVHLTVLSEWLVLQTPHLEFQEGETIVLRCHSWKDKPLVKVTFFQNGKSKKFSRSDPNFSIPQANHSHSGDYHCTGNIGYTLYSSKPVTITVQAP

B1: DARPin 53.A8 (designed binder)
chain: DLGKKLLEATRAGQDDEVRILMANGANVNATDEEGLTPLHLAALDGHLEIVEVLLKYGADVNADDMHGPTPLHLAAYAGHLEIVEVLLKYGADVNAYDCGGHTPLHLAARLGHLEIVEVLLKYGADVNAQDKFGKTPFDLAIDNGNEDIAEVLQKAA
B2: DARPin 53.D11 (designed binder)
chain: DLGKKLLEAARAGQDDEVRILMANGADVNATDITGATPLHLAAMWGHLEIVEVLLKYGADVNAQDYEGYTTLHLAAMWGHLEIVEVLLKYGADVNAHDVAGHTPLHLATHFGHLEIVEVLLKHGADVNAQDKFGKTPFDLAIDNGNEDIAEVLQKAA
B3: DARPin 53.2.C8 (designed binder)
chain: DLGKKLLEAARAGQDDAVRILMANGADANAYDHMGETPLHLAAMEGHLEIVEVLLKHGADVNADDWDGQTPLHLAAHWGHLEIVEVLLKYGADVKEQDVVGYTPLHLAAWIGHLEIVEVLLKNGADVNAQDKFGKTPFDLAIDNGNEDIAEVLQKAA
B4: DARPin 53.C1 (designed binder)
chain: DLGKKLLEAARVGQDDEVRILMANGADVNATDNEGQTPLHLAAMWGHLEIVEVQLKHGADVNASDTFGSTPLHLAARFGHLEIVEVLLKYGADVNAADTEGFTPLHLAAIDGHLEIVEVLLKHGADVNAQDKFGKTPFDLAIDNGNEDIAEVLQKAA
B5: DARPin 53.A11 (designed binder)
chain: DLGKKLLEATRAGQDDEVRILMANGADVNATDEEGLTPLHLAALIGHLEIVEVLLKYGADVNAADMDGTTPLHLAAQEGHLEIVEVLLKYGADVNADDFWGHTPLHLAAWFGHLEIVEVLLKHGADVNAQDKFGKTPFDLAIDNGNEDIAEVLQKAA
notes: also called 53.C9; 53.F7
B6: DARPin 53.B8 (designed binder)
chain: DLGKKLLEATRAGQDDEVRILMTNGTDVNATDEEGLTPLHLAALIGHPEIVEVLLKYGADVNAADMDGTTPLHLAAQEGHLEIVEVLLKYCADVNADDFWGHTPLHLAAWFGHLEIVEVLLKYGADVNAQDKFGKTPFDLAIDNGNEDIAEVLQKAA
B7: DARPin 53.2.H5 (designed binder)
chain: DLGKKLLEATRAGQDDEVRILMANGADVNATDEEGLTPLHLAALIGHLEIVEVLLKYDADVNAADMDGTTPLHLAAQEGHLEIVEVLLKYGADVNADDFWGHTPLHLAPWFGHLEIVEVLLNHGADVNAQDKFGKTPFDLAIDNGNEDLAEVLQKAA
B8: DARPin 53.2.B6 (designed binder)
chain: DLGKKLLEATRAGQDDEVRILMANGADVNATDEEGLTPLHLAALIGHLEIVEVLLKYGADVNAADMDGTTPLHLAAQEGHQEIVEVLLKYGADVNADDFWGHTPLHLAAWFGHLEIVEVLLKHGADVNAQDKFGKIPFDLAIDNGNEDIAEVLQKAA
B9: DARPin 53.B10 (designed binder)
chain: DLGKKLLEATRAGQDDEVRILMANGADVNATDEEGLTPLHLAALIGHLEIVEVLLKYGADVNAADMDGTTPLHLAAQEGHLEIVEVLLKYGADVNADDFWGHTPLHLAAWFGHLEIVEVLLKNGADVNAQDKFGKTPFDLAIDNGNEDIAEVLQKAA
B10: DARPin 53.D7 (designed binder)
chain: DLGKKLLEAARAGQDDEVRILMANGADVNATDEEGLTPLHLAALIGHLEIVEVLLKYGADVNAADMDGTTPLHLAAQEGHLEIVEVLLKYGADVNADDFWGHTPLHLAAWFGHLEIVEVLLKNGADVNAQDKFGKTPFDLAIDNGNEDIAEVLQKAA
B11: DARPin 53.2.D6 (designed binder)
chain: DLGKKLLDAASAGQDDEVRILMANGADVNATDEEGLTPLHLAALIGHLEIVEVLLKYGADVNAADMDGTTPLHLAAQEGHLEIVEVLLKYGADVNADDFWGHTPLHLAAWFGHLEIVEVLLKHGADVNAQDKFGKTPFDLAIDNGNEDIAEVLQKAA
B12: DARPin 53.2.H9 (designed binder)
chain: DLGKKLLEATRAGQDDEVRILMANGADVNATDEEGLTPLHLAALIGHLEIVEVLLKYGADVNAADMDGTTPLHLAVQEGHLEIVEVLLKYGADVNADDFWGHTPLHLAAWFGHLEIVEVLLKYGADVNAQDKFGKTPFDLAIDNGNEDIAEALQKAA
B13: DARPin 53.2.E10 (designed binder)
chain: DLGKKLLEATRAGQDDEVRILMANGADVNTTDEEGLTPLHLAALIGHLEIVEVLLKYGADVNAADMDGTTPLHLAAQEGHLEIVEVLLKYGADVNADDFWGHTPLHLAAWFGHLEIVEVLLKHGADVNAQDKFGKTPFDLAIDNGNEDIAEVLQKAA
B14: DARPin 53.2.H4 (designed binder)
chain: DLGKKLLEATRAGQDDEVRILMANGADVNTTDEEGLTPLHLAALIGHLEIVEVLLKYGADVNAADMDGTTPLHLAAQEGHLEIVEVLLKYGADVNADDFWGHTPLHLAAWFGHLEIVDVLLANVADVNANSAQSKTPFDLAIDNGNEDIAEVLQKAA
B15: DARPin 53.G7 (designed binder)
chain: DLGKKLLEATRAGQDDEVRILMANGADVNATDEEGLTPLHLAVLIGHLEIVDVLLKYGADVNAADMDGTTPLHLAAQEGHLEIVEVLLKYGADVNADDFWGHTPLHLAAWFGHLEIVEVLLKHGADVNAQDKFGKTPFDLAIDNGNEDIAEVLQKAA
B16: DARPin 53.H9 (designed binder)
chain: DLGKKLLEATRAGQDDEVRILMANGADVNATDEEGLTPLHLAALIGHLEIVEVLLKYGADVNAVDMDGTTPLHLAAQEGHLEIVEVLLKYGADVNADDFWGHTPLHLAAWFGHLEIVEVLLKHGADVNAQDKFGKTPFDLAIDNGNEDIAQVLQKAA
B17: DARPin 53.E11 (designed binder)
chain: DLGKKLLEAARAGQDDEVRILMANGADVNATDEEGLTPLHLAALIGHLEIVEVLLKYGTDVNAADMDGTTPLHLAAQEGHLEIVEVLLKYGADVNADDFWGHTPLHLAAWFGHLEIVEVLLKHGADVNAQDKFGKTPFDLAIDNGNEDIAEVLQKAA
B18: DARPin 53.A10 (designed binder)
chain: DLGKKLLEAARAGQDDEVRILMSNGADVNAWDKEGVTPLHLAAVHGHLEIVEVLLKHGADVNAQDDVGMTPLHLAAHWGHLEIVEVLLKYGADVNAQDYAGMTPLHLAAFQGHLEIVEVLLKHGADVNAQDKFGKTPFDLAIDNGNEDIAQVLQKAA
B19: DARPin 53.G1 (designed binder)
chain: DLGKKLLEATRAGQDDEVRILMSNGADVNAWDKEGVTPLHLAAVHGHLEIVEVLLKHGADVNAQDDVGMTPLHLAAHWGHLEIVEVLLKYGADVNAQDYAGMTPLHLAAFQGHLEIVEVLLKHGADVNAQDKFGKTPFDLAIDNGNEDIAEVLQKAA

T3 sequence (P02701 25-152): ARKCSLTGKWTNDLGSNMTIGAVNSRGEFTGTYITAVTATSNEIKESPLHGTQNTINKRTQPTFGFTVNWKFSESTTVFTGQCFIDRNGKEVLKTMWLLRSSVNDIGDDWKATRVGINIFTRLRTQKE

One experiment deals with T1, human CD32b expressed on cells. Nature of the experiment: flow cytometry, crude E. coli extract on SupT1-CD32b cells. In general terms: Flow cytometry measures light scatter and fluorescence of single cells or particles in a stream.
As for B1, the binding result is “no binding (tested: 5-25 µl of crude DARPin extracts)”. Take B2: the binding result was “no binding (tested: 5-25 µl of crude DARPin extracts)”. As to B3, the binding result is given as “no binding (tested: 5-25 µl of crude DARPin extracts)”. On the same count and under the same terms, the entry for B4 is “no binding (tested: 5-25 µl of crude DARPin extracts)”. The same measure, in the same setting: to B5 belongs “no binding (tested: 5-25 µl of crude DARPin extracts)”; to B6, “no binding (tested: 5-25 µl of crude DARPin extracts)”.

As to B7, the binding result is “no binding (tested: 5-25 µl of crude DARPin extracts)”. As for B8, the binding result is recorded as “no binding (tested: 5-25 µl of crude DARPin extracts)”. Regarding B9, the binding result was “no binding (tested: 5-25 µl of crude DARPin extracts)”.

For B10, the binding result is listed as “no binding (tested: 5-25 µl of crude DARPin extracts)”.

With B11, the binding result is on record as “no binding (tested: 5-25 µl of crude DARPin extracts)”. Take B12: the binding result was “no binding (tested: 5-25 µl of crude DARPin extracts)”. B13: the binding result is listed as “no binding (tested: 5-25 µl of crude DARPin extracts)”. Still for that read-out and setting: the entry for B14 is “no binding (tested: 5-25 µl of crude DARPin extracts)”. The same measure, in the same setting: the entry for B15 is “no binding (tested: 5-25 µl of crude DARPin extracts)”; for B16 it is “no binding (tested: 5-25 µl of crude DARPin extracts)”.

With B17, the binding result is “no binding (tested: 5-25 µl of crude DARPin extracts)”. Same read-out and setting: the entry for B18 is “no binding (tested: 5-25 µl of crude DARPin extracts)”.

Consider B19, for which the binding result is listed as “no binding (tested: 5-25 µl of crude DARPin extracts)”.

The next experiment addresses T3, neutravidin (UniProt P02701 25-152).
T3 construct: also called neutravidin NA chip (Cytiva)
Kind of experiment: SPR, Biacore T200, neutravidin NA chip. (In SPR one partner is held on a chip, and binding of the other changes the refractive index at the surface.)
As for B1, the binding result was “no binding”.

The target of the next experiment is T2, recombinant human CD32b protein, …. Kind of experiment: SPR, Biacore T200, biotinylated CD32b on neutravidin chip.
With B1, the binding result is given as “no binding”.

Source of the values: patent publication US20250101071A1 (PAUL EHRLICH INSTITUT BUNDESINSTITUT F R IMPFSTOFFE UND …, published 2025).
